Measurements as given in the supplement of paper PMC5998384.

How the values were obtained:
[1] = system: HeLa Kyoto; assay: solubility in G1/S (NP-40 vs SDS abundance) (log2 ratio); higher = more soluble; details: cell cycle stage: G1/S
[2] = system: HeLa Kyoto; assay: melting temperature (median over replicates), in situ; higher = more thermally stable
[3] = system: HeLa Kyoto; assay: solubility change mitosis vs G1/S (difference of NP-40 vs SDS log2 ratios) (log2 ratio difference); higher = more soluble in mitosis
[4] = system: HeLa Kyoto; assay: thermal stability score vs G1/S (z-score of summed log2 fold changes over temperatures); higher = more thermally stable than in G1/S
[5] = cell cycle stage: early G1 (4.5 h after nocodazole release)
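Wherever melting temperature (median over replicates), in situ is given: HeLa Kyoto cells synchronized by double thymidine or nocodazole block, proteins quantified by TMT10plex mass spectrometry, three independent biological replicates.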
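Wherever solubility change mitosis vs G1/S (difference of NP-40 vs SDS log2 ratios) is given: synchronized HeLa Kyoto cells (double thymidine block for G1/S, nocodazole release for mitosis), protein amounts in NP-40 versus SDS lysates quantified by mass spectrometry, three biological replicates.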
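Wherever solubility in G1/S (NP-40 vs SDS abundance) is given: HeLa Kyoto cells arrested at G1/S by double thymidine block, proteins quantified by TMT10plex mass spectrometry in mild NP-40 versus SDS extracts, three biological replicates.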
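Wherever thermal stability score vs G1/S (z-score of summed log2 fold changes over temperatures) is given: synchronized HeLa Kyoto cells, proteins quantified by TMT10plex mass spectrometry, three biological replicates, mitosis taken 0.5 h after nocodazole release, G1/S directly after double thymidine block.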

| Sequence | solubility in G1/S (log2) [1] | melting temperature ([2]; cell cycle stage: G1/S) | melting temperature ([2]; cell cycle stage: mitosis) | solubility change mitosis (log2) [3] | thermal stability score [4, 5] | thermal stability score ([4]; cell cycle stage: mitosis) |
| --- | --- | --- | --- | --- | --- | --- |
| MGGRVFLAFCVWLTLPGAETQDSRGCARWCPQNSSCVNATACRCNPGFSSFSEIITTPTETCDDINECATPSKVSCGKFSDCWNTEGSYDCVCSPGYEPVSGAKTFKNESENTCQDVDECQQNPRLCKSYGTCVNTLGSYTCQCLPGFKFIPEDPKVCTDVNECTSGQNPCHSSTHCLNNVGSYQCRCRPGWQPIPGSPNGPNNTVCEDVDECSSGQHQCDSSTVCFNTVGSYSCRCRPGWKPRHGIPNNQKDTVCEDMTFSTWTPPPGVHSQTLSRFFDKVQDLGRDSKTSSAEVTIQNVIKLVDELMEAPGDVEALAPPVRHLIATQLLSNLEDIMRILAKSLPKGPFTYISPSNTELTLMIQERGDKNVTMGQSSARMKLNWAVAAGAEDPGPAVAGILSIQNMTTLLANASLNLHSKKQAELEEIYESSIRGVQLRRLSAVNSIFLSHNNTKELNSPILFAFSHLESSDGEAGRDPPAKDVMPGPRQELLCAFWKSDSDRGGHWATEGCQVLGSKNGSTTCQCSHLSSFAILMAHYDVEDWKLTLITRVGLALSLFCLLLCILTFLLVRPIQGSRTTIHLHLCICLFVGSTIFLAGIENEGGQVGLRCRLVAGLLHYCFLAAFCWMSLEGLELYFLVVRVFQGQGLSTRWLCLIGYGVPLLIVGVSAAIYSKGYGRPRYCWLDFEQGFLWSFLGPVTFIILCNAVIFVTTVWKLTQKFSEINPDMKKLKKARALTITAIAQLFLLGCTWVFGLFIFDDRSLVLTYVFTILNCLQGAFLYLLHCLLNKKVREEYRKWACLVAGGSKYSEFTSTTSGTGHNQTRALRASESGI [CD97] | 0.257 | 59.6 °C | 58.4 °C | -0.171 | 0.176 | -0.537 |
| MGGVGEPGPREGPAQPGAPLPTFCWEQIRAHDQPGDKWLVIERRVYDISRWAQRHPGGSRLIGHHGAEDATDAFRAFHQDLNFVRKFLQPLLIGELAPEEPSQDGPLNAQLVEDFRALHQAAEDMKLFDASPTFFAFLLGHILAMEVLAWLLIYLLGPGWVPSALAAFILAISQAQSWCLQHDLGHASIFKKSWWNHVAQKFVMGQLKGFSAHWWNFRHFQHHAKPNIFHKDPDVTVAPVFLLGESSVEYGKKKRRYLPYNQQHLYFFLIGPPLLTLVNFEVENLAYMLVCMQWADLLWAASFYARFFLSYLPFYGVPGVLLFFVAVRVLESHWFVWITQMNHIPKEIGHEKHRDWVSSQLAATCNVEPSLFTNWFSGHLNFQIEHHLFPRMPRHNYSRVAPLVKSLCAKHGLSYEVKPFLTALVDIVRSLKKSGDIWLDAYLHQ [FADS3] | -0.263 | 54.5 °C | 53.9 °C | 0.0263 | -1.31 | -0.774 |
| MGIKVQRPRCFFDIAINNQPAGRVVFELFSDVCPKTCENFRCLCTGEKGTGKSTQKPLHYKSCLFHRVVKDFMVQGGDFSEGNGRGGESIYGGFFEDESFAVKHNKEFLLSMANRGKDTNGSQFFITTKPTPHLDGHHVVFGQVISGQEVVREIENQKTDAASKPFAEVRILSCGELIPKSKVKKEEKKRHKSSSSSSSSSSDSDSSSDSQSSSDSSDSESATEEKSKKRKKKHRKNSRKHKKEKKKRKKSKKSASSESEAENLEAQPQSTVRPEEIPPIPENRFLMRKSPPKADEKERKNRERERERECNPPNSQPASYQRRLLVTRSGRKIKGRGPRRYRTPSRSRSRDRFRRSETPPHWRQEMQRAQRMRVSSGERWIKGDKSELNEIKENQRSPVRVKERKITDHRNVSESPNRKNEKEKKVKDHKSNSKERDIRRNSEKDDKYKNKVKKRAKSKSRSKSKEKSKSKERDSKHNRNEEKRMRSRSKGRDHENVKEKEKQSDSKGKDQERSRSKEKSKQLESKSNEHDHSKSKEKDRRAQSRSRECDITKGKHSYNSRTRERSRSRDRSRRVRSRTHDRDRSRSKEYHRYREQEYRRRGRSRSRERRTPPGRSRSKDRRRRRRDSRSSEREESQSRNKDKYRNQESKSSHRKENSESEKRMYSKSRDHNSSNNSREKKADRDQSPFSKIKQSSQDNELKSSMLKNKEDEKIRSSVEKENQKSKGQENDHVHEKNKKFDHESSPGTDEDKSG [PPIG] | -1.67 | 45.8 °C | 47.6 °C | 0.846 | 1.25 | 2.05 |
| MGIQGGSVLFGLLLVLAVFCHSGHSLQCYNCPNPTADCKTAVNCSSDFDACLITKAGLQVYNKCWKFEHCNFNDVTTRLRENELTYYCCKKDLCNFNEQLENGGTSLSEKTVLLLVTPFLAAAWSLHP [CD59] | -0.814 | 56.8 °C | 64.9 °C | -0.0336 | -2.05 | -3.23 |
| MGKGCKVVVCGLLSVGKTAILEQLLYGNHTIGMEDCETMEDVYMASVETDRGVKEQLHLYDTRGLQEGVELPKHYFSFADGFVLVYSVNNLESFQRVELLKKEIDKFKDKKEVAIVVLGNKIDLSEQRQVDAEVAQQWAKSEKVRLWEVTVTDRKTLIEPFTLLASKLSQPQSKSSFPLPGRKNKGNSNSEN [NKIRAS1] | 0.0841 | 48.9 °C | 48.6 °C | -0.0109 | 2.91e-19 | -1.95e-17 |
